Data from patent US20230151095A1 (published 2023).

The binders below were run against CD16 (UniProt P08637 17-208).
Sequence of CD16 (P08637 17-208): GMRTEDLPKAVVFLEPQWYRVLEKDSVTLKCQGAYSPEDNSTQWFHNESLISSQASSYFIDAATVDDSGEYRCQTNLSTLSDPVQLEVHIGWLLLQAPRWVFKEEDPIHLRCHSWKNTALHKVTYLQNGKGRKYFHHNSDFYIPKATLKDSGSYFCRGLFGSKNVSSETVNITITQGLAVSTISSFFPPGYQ

| Kd | Binder |
| --- | --- |
| 136 nM | XENP41025 (antibody) chain 1: EVQLLESGGGLVQPGGSLRLSCAVSGFSLSSYGVIWVRQAPGKGLEYVSWVSSGGSTNYASSVKGRFTISRDTSKNTVYLQMNSLRAEDTAVYFCARGATNSGTDIWGPGTLVTVSSASTKGPSVFPLAPSSKSTSGGTAALGCLVKDYFPEPVTVSWNSGALTSGVHTFPAVLQSSGLYSLSSVVTVPSSSLGTQTYICNVNHKPSDTKVDKKVEPKSCDKTHTCPPCPAPELLGGPSVFLFPPKPKDTLMISRTPEVTCVVVDVSHEDPEVKFNWYVDGVEVHNAKTKPREEEYNSTYRVVSVLTVLHQDWLNGKEYKCKVSNKALPAPIEKTISKAKGQPREPQVYTLPPSREEMTKNQVSLTCDVSGFYPSDIAVEWESDGQPENNYKTTPPVLDSDGSFFLYSKLTVDKSRWEQGDVFSCSVMHEALHNHYTQKSLSLSPGK chain 2: EVQLLESGGGLVQPGGSLRLSCAVSGFSLSSYGVIWVRQAPGKGLEYVSWVSSGGSTNYASSVKGRFTISRDTSKNTVYLQMNSLRAEDTAVYFCARGATNSGTDIWGPGTLVTVSSGKPGSGKPGSGKPGSGKPGSDIVMTQSPSSLSASVGDRVTITCRASQSINSWLSWYQQKPGKPPKLLIYGASNLASGVPSRFKGSGSGTDFTLTISSLQPEDFATYYCQNNYGIIAAGATFGGGTKVEIKEPKSSDKTHTCPPCPAPELLGGPDVFLFPPKPKDTLMISRTPEVTCVVVDVSHEDPEVKFNWYVDGVEVHNAKTKPREEQYNSTYRVVSVLTVLHQDWLNGKEYKCKVSNKALPAPEEKTISKAKGQPREPQVYTLPPSREQMTKNQVKLTCLVKGFYPSDIAVEWESNGQPENNYKTTPPVLDSDGSFFLYSKLTVDKSRWQQGNVFSCSVMHEALHNHYTQKSLSLSPGK chain 3: DIVMTQSPSSLSASVGDRVTITCRASQSINSWLSWYQQKPGKPPKLLIYGASNLASGVPSRFKGSGSGTDFTLTISSLQPEDFATYYCQNNYGIIAAGATFGGGTKVEIKRTVAAPSVFIFPPSDEQLKSGTASVVCLLNNFYPREAKVQWKVDNALQSGNSQESVTEQDSKDSTYSLSSTLTLSKADYEKHKVYACEVTHQGLSSPVTKSFNRGEC |
| 100 nM | XENP41035 (antibody) chain 1: EVQLLESGGGLVQPGGSLRLSCAVSGFSLSSYGVIWVRQAPGKGLEYVSWVSSGGSTNYASSVKGRFTISRDTSKNTVYLQMNSLRAEDTAVYFCARGATNSGTDIWGPGTLVTVSSASTKGPSVFPLAPSSKSTSGGTAALGCLVKDYFPEPVTVSWNSGALTSGVHTFPAVLQSSGLYSLSSVVTVPSSSLGTQTYICNVNHKPSDTKVDKKVEPKSCDKTHTCPPCPAPELLGGPDVFLFPPKPKDTLMISRTPEVTCVVVDVSHEDPEVKFNWYVDGVEVHNAKTKPREEEYNSTYRVVSVLTVLHQDWLNGKEYKCKVSNKALPAPIEKTISKAKGQPREPQVYTLPPSREEMTKNQVSLTCDVSGFYPSDIAVEWESDGQPENNYKTTPPVLDSDGSFFLYSKLTVDKSRWEQGDVFSCSVMHEALHNHYTQKSLSLSPGK chain 2: EVQLLESGGGLVQPGGSLRLSCAVSGFSLSSYGVIWVRQAPGKGLEYVSWVSSGGSTNYASSVKGRFTISRDTSKNTVYLQMNSLRAEDTAVYFCARGATNSGTDIWGPGTLVTVSSGKPGSGKPGSGKPGSGKPGSDIVMTQSPSSLSASVGDRVTITCRASQSINSWLSWYQQKPGKPPKLLIYGASNLASGVPSRFKGSGSGTDFTLTISSLQPEDFATYYCQNNYGIIAAGATFGGGTKVEIKEPKSSDKTHTCPPCPAPELLGGPSVFLFPPKPKDTLMISRTPEVTCVVVDVSHEDPEVKFNWYVDGVEVHNAKTKPREEQYNSTYRVVSVLTVLHQDWLNGKEYKCKVSNKALPAPEEKTISKAKGQPREPQVYTLPPSREQMTKNQVKLTCLVKGFYPSDIAVEWESNGQPENNYKTTPPVLDSDGSFFLYSKLTVDKSRWQQGNVFSCSVMHEALHNHYTQKSLSLSPGK chain 3: DIVMTQSPSSLSASVGDRVTITCRASQSINSWLSWYQQKPGKPPKLLIYGASNLASGVPSRFKGSGSGTDFTLTISSLQPEDFATYYCQNNYGIIAAGATFGGGTKVEIKRTVAAPSVFIFPPSDEQLKSGTASVVCLLNNFYPREAKVQWKVDNALQSGNSQESVTEQDSKDSTYSLSSTLTLSKADYEKHKVYACEVTHQGLSSPVTKSFNRGEC |
| 59.9 nM | XENP41033 (antibody) chain 1: EVQLLESGGGLVQPGGSLRLSCAVSGFSLSSYGVIWVRQAPGKGLEYVSWVSSGGSTNYASSVKGRFTISRDTSKNTVYLQMNSLRAEDTAVYFCARGATNSGTDIWGPGTLVTVSSASTKGPSVFPLAPSSKSTSGGTAALGCLVKDYFPEPVTVSWNSGALTSGVHTFPAVLQSSGLYSLSSVVTVPSSSLGTQTYICNVNHKPSDTKVDKKVEPKSCDKTHTCPPCPAPELLGGPDVFLFPPKPKDTLMISRTPEVTCVVVDVSHEDPEVKFNWYVDGVEVHNAKTKPREEEYNSTYRVVSVLTVLHQDWLNGKEYKCKVSNKALPAPIEKTISKAKGQPREPQVYTLPPSREEMTKNQVSLTCDVSGFYPSDIAVEWESDGQPENNYKTTPPVLDSDGSFFLYSKLTVDKSRWEQGDVFSCSVMHEALHNHYTQKSLSLSPGK chain 2: EVQLLESGGGLVQPGGSLRLSCAVSGFSLSSYGVIWVRQAPGKGLEYVSWVSSGGSTNYASSVKGRFTISRDTSKNTVYLQMNSLRAEDTAVYFCARGATNSGTDIWGPGTLVTVSSGKPGSGKPGSGKPGSGKPGSDIVMTQSPSSLSASVGDRVTITCRASQSINSWLSWYQQKPGKPPKLLIYGASNLASGVPSRFKGSGSGTDFTLTISSLQPEDFATYYCQNNYGIIAAGATFGGGTKVEIKEPKSSDKTHTCPPCPAPELLGGPDVFLFPPKPKDTLMISRTPEVTCVVVDVSHEDPEVKFNWYVDGVEVHNAKTKPREEQYNSTYRVVSVLTVLHQDWLNGKEYKCKVSNKALPAPEEKTISKAKGQPREPQVYTLPPSREQMTKNQVKLTCLVKGFYPSDIAVEWESNGQPENNYKTTPPVLDSDGSFFLYSKLTVDKSRWQQGNVFSCSVMHEALHNHYTQKSLSLSPGK chain 3: DIVMTQSPSSLSASVGDRVTITCRASQSINSWLSWYQQKPGKPPKLLIYGASNLASGVPSRFKGSGSGTDFTLTISSLQPEDFATYYCQNNYGIIAAGATFGGGTKVEIKRTVAAPSVFIFPPSDEQLKSGTASVVCLLNNFYPREAKVQWKVDNALQSGNSQESVTEQDSKDSTYSLSSTLTLSKADYEKHKVYACEVTHQGLSSPVTKSFNRGEC |
| 120 nM | XENP41028 (antibody) chain 1: EVQLLESGGGLVQPGGSLRLSCAVSGFSLSSYGVIWVRQAPGKGLEYVSWVSSGGSTNYASSVKGRFTISRDTSKNTVYLQMNSLRAEDTAVYFCARGATNSGTDIWGPGTLVTVSSASTKGPSVFPLAPSSKSTSGGTAALGCLVKDYFPEPVTVSWNSGALTSGVHTFPAVLQSSGLYSLSSVVTVPSSSLGTQTYICNVNHKPSDTKVDKKVEPKSCDKTHTCPPCPAPELLGGPDVFLFPPKPKDTLMISRTPEVTCVVVDVSHEDPEVKFNWYVDGVEVHNAKTKPREEEYNSTYRVVSVLTVLHQDWLNGKEYKCKVSNKALPAPEEKTISKAKGQPREPQVYTLPPSREEMTKNQVSLTCDVSGFYPSDIAVEWESDGQPENNYKTTPPVLDSDGSFFLYSKLTVDKSRWEQGDVFSCSVMHEALHNHYTQKSLSLSPGK chain 2: not shown chain 3: DIVMTQSPSSLSASVGDRVTITCRASQSINSWLSWYQQKPGKPPKLLIYGASNLASGVPSRFKGSGSGTDFTLTISSLQPEDFATYYCQNNYGIIAAGATFGGGTKVEIKRTVAAPSVFIFPPSDEQLKSGTASVVCLLNNFYPREAKVQWKVDNALQSGNSQESVTEQDSKDSTYSLSSTLTLSKADYEKHKVYACEVTHQGLSSPVTKSFNRGEC |
| 64.6 nM | XENP41034 (antibody) chain 1: EVQLLESGGGLVQPGGSLRLSCAVSGFSLSSYGVIWVRQAPGKGLEYVSWVSSGGSTNYASSVKGRFTISRDTSKNTVYLQMNSLRAEDTAVYFCARGATNSGTDIWGPGTLVTVSSASTKGPSVFPLAPSSKSTSGGTAALGCLVKDYFPEPVTVSWNSGALTSGVHTFPAVLQSSGLYSLSSVVTVPSSSLGTQTYICNVNHKPSDTKVDKKVEPKSCDKTHTCPPCPAPELLGGPSVFLFPPKPKDTLMISRTPEVTCVVVDVSHEDPEVKFNWYVDGVEVHNAKTKPREEEYNSTYRVVSVLTVLHQDWLNGKEYKCKVSNKALPAPEEKTISKAKGQPREPQVYTLPPSREEMTKNQVSLTCDVSGFYPSDIAVEWESDGQPENNYKTTPPVLDSDGSFFLYSKLTVDKSRWEQGDVFSCSVMHEALHNHYTQKSLSLSPGK chain 2: EVQLLESGGGLVQPGGSLRLSCAVSGFSLSSYGVIWVRQAPGKGLEYVSWVSSGGSTNYASSVKGRFTISRDTSKNTVYLQMNSLRAEDTAVYFCARGATNSGTDIWGPGTLVTVSSGKPGSGKPGSGKPGSGKPGSDIVMTQSPSSLSASVGDRVTITCRASQSINSWLSWYQQKPGKPPKLLIYGASNLASGVPSRFKGSGSGTDFTLTISSLQPEDFATYYCQNNYGIIAAGATFGGGTKVEIKEPKSSDKTHTCPPCPAPELLGGPDVFLFPPKPKDTLMISRTPEVTCVVVDVSHEDPEVKFNWYVDGVEVHNAKTKPREEQYNSTYRVVSVLTVLHQDWLNGKEYKCKVSNKALPAPEEKTISKAKGQPREPQVYTLPPSREQMTKNQVKLTCLVKGFYPSDIAVEWESNGQPENNYKTTPPVLDSDGSFFLYSKLTVDKSRWQQGNVFSCSVMHEALHNHYTQKSLSLSPGK chain 3: DIVMTQSPSSLSASVGDRVTITCRASQSINSWLSWYQQKPGKPPKLLIYGASNLASGVPSRFKGSGSGTDFTLTISSLQPEDFATYYCQNNYGIIAAGATFGGGTKVEIKRTVAAPSVFIFPPSDEQLKSGTASVVCLLNNFYPREAKVQWKVDNALQSGNSQESVTEQDSKDSTYSLSSTLTLSKADYEKHKVYACEVTHQGLSSPVTKSFNRGEC |
| 55.2 nM | XENP41031 (antibody) chain 1: EVQLLESGGGLVQPGGSLRLSCAVSGFSLSSYGVIWVRQAPGKGLEYVSWVSSGGSTNYASSVKGRFTISRDTSKNTVYLQMNSLRAEDTAVYFCARGATNSGTDIWGPGTLVTVSSASTKGPSVFPLAPSSKSTSGGTAALGCLVKDYFPEPVTVSWNSGALTSGVHTFPAVLQSSGLYSLSSVVTVPSSSLGTQTYICNVNHKPSDTKVDKKVEPKSCDKTHTCPPCPAPELLGGPDVFLFPPKPKDTLMISRTPEVTCVVVDVSHEDPEVKFNWYVDGVEVHNAKTKPREEEYNSTYRVVSVLTVLHQDWLNGKEYKCKVSNKALPAPEEKTISKAKGQPREPQVYTLPPSREEMTKNQVSLTCDVSGFYPSDIAVEWESDGQPENNYKTTPPVLDSDGSFFLYSKLTVDKSRWEQGDVFSCSVMHEALHNHYTQKSLSLSPGK chain 2: EVQLLESGGGLVQPGGSLRLSCAVSGFSLSSYGVIWVRQAPGKGLEYVSWVSSGGSTNYASSVKGRFTISRDTSKNTVYLQMNSLRAEDTAVYFCARGATNSGTDIWGPGTLVTVSSGKPGSGKPGSGKPGSGKPGSDIVMTQSPSSLSASVGDRVTITCRASQSINSWLSWYQQKPGKPPKLLIYGASNLASGVPSRFKGSGSGTDFTLTISSLQPEDFATYYCQNNYGIIAAGATFGGGTKVEIKEPKSSDKTHTCPPCPAPELLGGPDVFLFPPKPKDTLMISRTPEVTCVVVDVSHEDPEVKFNWYVDGVEVHNAKTKPREEQYNSTYRVVSVLTVLHQDWLNGKEYKCKVSNKALPAPIEKTISKAKGQPREPQVYTLPPSREQMTKNQVKLTCLVKGFYPSDIAVEWESNGQPENNYKTTPPVLDSDGSFFLYSKLTVDKSRWQQGNVFSCSVMHEALHNHYTQKSLSLSPGK chain 3: DIVMTQSPSSLSASVGDRVTITCRASQSINSWLSWYQQKPGKPPKLLIYGASNLASGVPSRFKGSGSGTDFTLTISSLQPEDFATYYCQNNYGIIAAGATFGGGTKVEIKRTVAAPSVFIFPPSDEQLKSGTASVVCLLNNFYPREAKVQWKVDNALQSGNSQESVTEQDSKDSTYSLSSTLTLSKADYEKHKVYACEVTHQGLSSPVTKSFNRGEC |
